Test results reported in article PMC10786891, “Massively parallel profiling of RNA-targeting CRISPR-Cas13d”.

T1: EsCas13d, nuclease-dead (Eubacterium siraeum, UniProt B0MS50, R295A;H300A;R849A;H854A)
T1 sequence: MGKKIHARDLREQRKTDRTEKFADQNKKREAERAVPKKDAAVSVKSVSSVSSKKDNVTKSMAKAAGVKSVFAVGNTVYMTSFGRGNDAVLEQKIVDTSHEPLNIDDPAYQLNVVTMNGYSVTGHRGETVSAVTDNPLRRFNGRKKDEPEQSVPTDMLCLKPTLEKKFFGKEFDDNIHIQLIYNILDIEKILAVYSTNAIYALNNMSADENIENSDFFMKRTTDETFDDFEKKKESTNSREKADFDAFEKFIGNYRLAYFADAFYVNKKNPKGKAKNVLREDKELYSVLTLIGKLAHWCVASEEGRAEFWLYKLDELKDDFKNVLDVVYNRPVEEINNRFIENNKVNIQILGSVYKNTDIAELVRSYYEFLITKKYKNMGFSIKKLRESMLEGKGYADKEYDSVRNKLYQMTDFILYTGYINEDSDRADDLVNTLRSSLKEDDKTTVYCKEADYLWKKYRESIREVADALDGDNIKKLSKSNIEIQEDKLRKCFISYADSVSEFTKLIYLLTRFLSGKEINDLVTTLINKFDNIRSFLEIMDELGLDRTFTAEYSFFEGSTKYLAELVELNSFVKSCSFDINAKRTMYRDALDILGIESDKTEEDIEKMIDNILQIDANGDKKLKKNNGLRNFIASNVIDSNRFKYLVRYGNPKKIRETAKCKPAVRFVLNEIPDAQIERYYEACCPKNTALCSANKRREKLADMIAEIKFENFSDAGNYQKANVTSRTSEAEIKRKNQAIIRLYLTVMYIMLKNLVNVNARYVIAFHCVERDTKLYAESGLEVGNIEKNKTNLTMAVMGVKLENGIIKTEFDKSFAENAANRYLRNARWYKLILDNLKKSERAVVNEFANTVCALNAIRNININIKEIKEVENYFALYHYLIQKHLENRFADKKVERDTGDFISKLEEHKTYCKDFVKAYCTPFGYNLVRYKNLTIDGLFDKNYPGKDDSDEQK


Biological target: T1, EsCas13d, nuclease-dead
Assay: crRNA (strand 1, pre-loaded); Mg2+; 40 mM Tris-HCl pH 7.5, 150 mM NaCl, 6 mM MgCl2, 1 mM DTT, 0.1% Tween-20, 0.2 mg/ml BSA; 25 C; 10 min per concentration, then washed
Conditions: tags: His6-TwinStrep-SUMO cleaved; N-terminal SNAP kept (SNAP-Surface 488); label: 3' end held by stalled T7 RNA polymerase

| Binder | Kd [nM] |
| --- | --- |
| target 1 insA 3' of 21,insG 3' of 9 (mixed) RNA 1: CACCCGUGCAAAAAUGCAGGGGUCUAAAACUGAGCGGAUAACCUCUCUAUGG RNA 2: GGGAAUGGAUCCACAUCUACGAAUUCGUACCAAUAGAGAGGUUAGUCCGCUCACCGAGAUCGGAAGAGCACACGU | 46 ± 6 |
| target 1 insA 3' of 13,insU 3' of 13 (mixed) RNA 1: CACCCGUGCAAAAAUGCAGGGGUCUAAAACUGAGCGGAUAACCUCUCUAUGG RNA 2: GGGAAUGGAUCCACAUCUACGAAUUCGUACCAUAGAGAGAUGUUAUCCGCUCACCGAGAUCGGAAGAGCACACGU | 14.2 ± 1.3 |
| target 1 insC 3' of 19,insG 3' of 4 (mixed) RNA 1: CACCCGUGCAAAAAUGCAGGGGUCUAAAACUGAGCGGAUAACCUCUCUAUGG RNA 2: GGGAAUGGAUCCACAUCUACGAAUUCGUACCAUCAGAGAGGUUAUCCGCGUCACCGAGAUCGGAAGAGCACACGU | 21.5 ± 1.3 |
| target 2 MT 5'PFS CGC 3'PFS CGC (mixed) RNA 1: CACCCGUGCAAAAUUGCAGGGGUCUAAAACCUUCUCCAAAUUGUUUCAUCCU RNA 2: GGGAAUGGAUCCACAUCUACGAAUUCCGCAGGAUGAAACAAUUUGGAGAAGCGCAGAUCGGAAGAGCACACGU | 4.1 ± 0.4 |
| target 2 MT 5'PFS GAA 3'PFS AAU (mixed) RNA 1: CACCCGUGCAAAAUUGCAGGGGUCUAAAACCUUCUCCAAAUUGUUUCAUCCU RNA 2: GGGAAUGGAUCCACAUCUACGAAUUCGAAAGGAUGAAACAAUUUGGAGAAGAAUAGAUCGGAAGAGCACACGU | 16 ± 7 |
| target 2 MT 5'PFS UAG 3'PFS AUA (mixed) RNA 1: CACCCGUGCAAAAUUGCAGGGGUCUAAAACCUUCUCCAAAUUGUUUCAUCCU RNA 2: GGGAAUGGAUCCACAUCUACGAAUUCUAGAGGAUGAAACAAUUUGGAGAAGAUAAGAUCGGAAGAGCACACGU | 2.63 ± 0.33 |
| target 2 MT 5'PFS GGG 3'PFS UAC (mixed) RNA 1: CACCCGUGCAAAAUUGCAGGGGUCUAAAACCUUCUCCAAAUUGUUUCAUCCU RNA 2: GGGAAUGGAUCCACAUCUACGAAUUCGGGAGGAUGAAACAAUUUGGAGAAGUACAGAUCGGAAGAGCACACGU | 9.6 ± 0.7 |
| target 2 MT 5'PFS CGC 3'PFS CGG (mixed) RNA 1: CACCCGUGCAAAAUUGCAGGGGUCUAAAACCUUCUCCAAAUUGUUUCAUCCU RNA 2: GGGAAUGGAUCCACAUCUACGAAUUCCGCAGGAUGAAACAAUUUGGAGAAGCGGAGAUCGGAAGAGCACACGU | 7.3 ± 1.2 |
| target 2 MT 5'PFS UAA 3'PFS CCG (mixed) RNA 1: CACCCGUGCAAAAUUGCAGGGGUCUAAAACCUUCUCCAAAUUGUUUCAUCCU RNA 2: GGGAAUGGAUCCACAUCUACGAAUUCUAAAGGAUGAAACAAUUUGGAGAAGCCGAGAUCGGAAGAGCACACGU | 5.6 ± 0.6 |
| target 2 MT 5'PFS CAC 3'PFS AGU (mixed) RNA 1: CACCCGUGCAAAAUUGCAGGGGUCUAAAACCUUCUCCAAAUUGUUUCAUCCU RNA 2: GGGAAUGGAUCCACAUCUACGAAUUCCACAGGAUGAAACAAUUUGGAGAAGAGUAGAUCGGAAGAGCACACGU | 2.7 ± 0.6 |
| target 2 MT 5'PFS AUG 3'PFS CCG (mixed) RNA 1: CACCCGUGCAAAAUUGCAGGGGUCUAAAACCUUCUCCAAAUUGUUUCAUCCU RNA 2: GGGAAUGGAUCCACAUCUACGAAUUCAUGAGGAUGAAACAAUUUGGAGAAGCCGAGAUCGGAAGAGCACACGU | 9.5 ± 1.1 |
| target 2 MT 5'PFS GAA 3'PFS AAG (mixed) RNA 1: CACCCGUGCAAAAUUGCAGGGGUCUAAAACCUUCUCCAAAUUGUUUCAUCCU RNA 2: GGGAAUGGAUCCACAUCUACGAAUUCGAAAGGAUGAAACAAUUUGGAGAAGAAGAGAUCGGAAGAGCACACGU | 8.2 ± 2.1 |
| target 2 MT 5'PFS GAA 3'PFS AAA (mixed) RNA 1: CACCCGUGCAAAAUUGCAGGGGUCUAAAACCUUCUCCAAAUUGUUUCAUCCU RNA 2: GGGAAUGGAUCCACAUCUACGAAUUCGAAAGGAUGAAACAAUUUGGAGAAGAAAAGAUCGGAAGAGCACACGU | 5.7 ± 1.1 |
| target 2 MT 5'PFS GGG 3'PFS UAU (mixed) RNA 1: CACCCGUGCAAAAUUGCAGGGGUCUAAAACCUUCUCCAAAUUGUUUCAUCCU RNA 2: GGGAAUGGAUCCACAUCUACGAAUUCGGGAGGAUGAAACAAUUUGGAGAAGUAUAGAUCGGAAGAGCACACGU | 9.6 ± 1 |
| target 2 MT 5'PFS GAA 3'PFS AAC (mixed) RNA 1: CACCCGUGCAAAAUUGCAGGGGUCUAAAACCUUCUCCAAAUUGUUUCAUCCU RNA 2: GGGAAUGGAUCCACAUCUACGAAUUCGAAAGGAUGAAACAAUUUGGAGAAGAACAGAUCGGAAGAGCACACGU | 11 ± 1.6 |
| target 2 MT 5'PFS CGC 3'PFS UUC (mixed) RNA 1: CACCCGUGCAAAAUUGCAGGGGUCUAAAACCUUCUCCAAAUUGUUUCAUCCU RNA 2: GGGAAUGGAUCCACAUCUACGAAUUCCGCAGGAUGAAACAAUUUGGAGAAGUUCAGAUCGGAAGAGCACACGU | 12.1 ± 1.9 |
| target 2 MT 5'PFS UAG 3'PFS AUC (mixed) RNA 1: CACCCGUGCAAAAUUGCAGGGGUCUAAAACCUUCUCCAAAUUGUUUCAUCCU RNA 2: GGGAAUGGAUCCACAUCUACGAAUUCUAGAGGAUGAAACAAUUUGGAGAAGAUCAGAUCGGAAGAGCACACGU | 3.3 ± 0.7 |
| target 2 MT 5'PFS UAA 3'PFS CCA (mixed) RNA 1: CACCCGUGCAAAAUUGCAGGGGUCUAAAACCUUCUCCAAAUUGUUUCAUCCU RNA 2: GGGAAUGGAUCCACAUCUACGAAUUCUAAAGGAUGAAACAAUUUGGAGAAGCCAAGAUCGGAAGAGCACACGU | 20 ± 6 |
| target 2 MT 5'PFS GCG 3'PFS UAA (mixed) RNA 1: CACCCGUGCAAAAUUGCAGGGGUCUAAAACCUUCUCCAAAUUGUUUCAUCCU RNA 2: GGGAAUGGAUCCACAUCUACGAAUUCGCGAGGAUGAAACAAUUUGGAGAAGUAAAGAUCGGAAGAGCACACGU | 9.6 ± 2.4 |
| target 2 MT 5'PFS ACC 3'PFS CUU (mixed) RNA 1: CACCCGUGCAAAAUUGCAGGGGUCUAAAACCUUCUCCAAAUUGUUUCAUCCU RNA 2: GGGAAUGGAUCCACAUCUACGAAUUCACCAGGAUGAAACAAUUUGGAGAAGCUUAGAUCGGAAGAGCACACGU | 6.3 ± 1.6 |
| target 2 MT 5'PFS GCG 3'PFS UAC (mixed) RNA 1: CACCCGUGCAAAAUUGCAGGGGUCUAAAACCUUCUCCAAAUUGUUUCAUCCU RNA 2: GGGAAUGGAUCCACAUCUACGAAUUCGCGAGGAUGAAACAAUUUGGAGAAGUACAGAUCGGAAGAGCACACGU | 13.1 ± 3.1 |
| target 2 MT 5'PFS CAU 3'PFS CUU (mixed) RNA 1: CACCCGUGCAAAAUUGCAGGGGUCUAAAACCUUCUCCAAAUUGUUUCAUCCU RNA 2: GGGAAUGGAUCCACAUCUACGAAUUCCAUAGGAUGAAACAAUUUGGAGAAGCUUAGAUCGGAAGAGCACACGU | 4.6 ± 0.6 |
| target 2 MT 5'PFS UGU 3'PFS UUU (mixed) RNA 1: CACCCGUGCAAAAUUGCAGGGGUCUAAAACCUUCUCCAAAUUGUUUCAUCCU RNA 2: GGGAAUGGAUCCACAUCUACGAAUUCUGUAGGAUGAAACAAUUUGGAGAAGUUUAGAUCGGAAGAGCACACGU | 50 ± 13 |
| target 2 MT 5'PFS GCG 3'PFS ACU (mixed) RNA 1: CACCCGUGCAAAAUUGCAGGGGUCUAAAACCUUCUCCAAAUUGUUUCAUCCU RNA 2: GGGAAUGGAUCCACAUCUACGAAUUCGCGAGGAUGAAACAAUUUGGAGAAGACUAGAUCGGAAGAGCACACGU | 13.8 ± 1.2 |
| target 2 MT 5'PFS AUG 3'PFS CCU (mixed) RNA 1: CACCCGUGCAAAAUUGCAGGGGUCUAAAACCUUCUCCAAAUUGUUUCAUCCU RNA 2: GGGAAUGGAUCCACAUCUACGAAUUCAUGAGGAUGAAACAAUUUGGAGAAGCCUAGAUCGGAAGAGCACACGU | ~70 |
| target 2 MT 5'PFS AUU 3'PFS CAU (mixed) RNA 1: CACCCGUGCAAAAUUGCAGGGGUCUAAAACCUUCUCCAAAUUGUUUCAUCCU RNA 2: GGGAAUGGAUCCACAUCUACGAAUUCAUUAGGAUGAAACAAUUUGGAGAAGCAUAGAUCGGAAGAGCACACGU | 5.7 ± 0.7 |
| target 2 MT 5'PFS GGG 3'PFS UAG (mixed) RNA 1: CACCCGUGCAAAAUUGCAGGGGUCUAAAACCUUCUCCAAAUUGUUUCAUCCU RNA 2: GGGAAUGGAUCCACAUCUACGAAUUCGGGAGGAUGAAACAAUUUGGAGAAGUAGAGAUCGGAAGAGCACACGU | 8 ± 0.6 |
| target 2 MT 5'PFS UAG 3'PFS AUG (mixed) RNA 1: CACCCGUGCAAAAUUGCAGGGGUCUAAAACCUUCUCCAAAUUGUUUCAUCCU RNA 2: GGGAAUGGAUCCACAUCUACGAAUUCUAGAGGAUGAAACAAUUUGGAGAAGAUGAGAUCGGAAGAGCACACGU | 3.21 ± 0.28 |
